Consider one molecule from patent CN113087789A.

The target in test [1] is M13KO7辅助噬菌体 (丝状噬菌体pVIII蛋白) (M13KO7 helper phage (filamentous phage)) (UniProt P69541). Put plainly: indirect ELISA, plate coated with 1.0×10^9 pfu/mL M13KO7 helper phage, purified antibody (1.0 mg/mL stock).
For test [2] the target is unchanged. Briefly: indirect ELISA, plate coated with 1.0×10^9 pfu/mL M13KO7 helper phage, ascites antibody.

Chain of UniProt P69541 (P69541 24-73): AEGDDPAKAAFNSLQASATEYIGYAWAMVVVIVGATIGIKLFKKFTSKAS

B1: 丝状噬菌体pVIII蛋白单克隆抗体P8E4 (antibody, V domains shown)
VH: QIQLQQSGAELARPGASVRLSCKRSGYTFTTYWLQWLKQRAGQGLEWIGAIYPGNGDTRYFPNFKGQATLTADRSSSTRYLQLSSLASESSAVYYCASLLRTDFAMDYRGQGTSVTVSS
VL: DIVLTQSPASEAVSLGQRATISCRTSESVDTYAISFIHWYQQKPGWPPKLLIYRASNAESGIPARFAGSGSRPDFTLSIRPVEADDVATYYCQQSDKDPGSFGGGTKLEIK
Take B1: the 效价 (titer, purified antibody 1.0 mg/mL) (fold dilution) in test [1] was 6400. Besides, in test [2], the 效价 (titer, ascites) (fold dilution) came out at 102000.
